Key:
[1] = test system: control peptide, an HES-bearing peptide of the same length, with the same labeling, that does not contain the conformation-dependent cleavage site
[2] = test system: eighteen amino acid peptide containing the amino acid sequence PLGIA, covalently labeled with the same fluorophore near each end (HES structure)

For matrix metalloprotease-9 (MMP-9), the “fluorescence intensity on addition of the MMP” value [1] was “The fluorescence of the latter does not increase upon addition of the MMP”, the “fluorescence intensity on cleavage of the HES peptide (peptide at 2 uM, pH 7.5 buffer)” value [2] was “Cleavage of the peptide gives rise to an increase in fluorescence intensity” and the “reverse-phase HPLC retention time of the peptide before and after exposure to the protease” value [2] was “After exposure to MMP-9, the major peaks were at ca. 30 and 31 minutes with the almost complete disappearance of the 38 minute peak”.

Reference: patent US20230065782
